Laboratory results as given in IntAct's records for PubMed 17576925.

B1: Long-distance movement protein (Groundnut rosette virus (strain MC1)), Q67684 (parent)
chain: MDTTPASRGQWPVGIMSSVINVFASGKSCNSGGAPRSSVRRGHRAGAARDKSRGFDAPPRRPKGGVHPATTSKDPNKDIRGPPAPTPHKKYRGPAIPGEGRSGVHTTRPRRRAGRSGGMDPRQLVAQPQQRWAKTEIPTERRAEIDGLLPSLLNTLDGQIQGDAALLRYCVGAIKRELRRRWESVQPAHHVAASSGKPSPQLFNEAAQNAEDLSGDGKGCAGQSVQQEVLHSGSGVPPVCADCGKPAANKW
partner: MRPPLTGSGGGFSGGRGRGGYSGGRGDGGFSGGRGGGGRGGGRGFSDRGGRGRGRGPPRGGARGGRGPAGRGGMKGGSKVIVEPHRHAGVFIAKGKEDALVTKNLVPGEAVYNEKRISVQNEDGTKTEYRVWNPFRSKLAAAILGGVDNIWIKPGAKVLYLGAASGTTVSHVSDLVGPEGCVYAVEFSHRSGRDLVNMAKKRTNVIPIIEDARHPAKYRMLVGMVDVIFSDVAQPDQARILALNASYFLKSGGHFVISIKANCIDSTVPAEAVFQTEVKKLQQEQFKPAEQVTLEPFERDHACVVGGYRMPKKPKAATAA

Variants of: B1
Settings: with fbrl2_arath FIB2, Q94AH9
With L149A the “effect of a mutation on the interaction” value was “disrupting interaction strength”.
